Laboratory results: article PMC6026032 (Brain research, 2018)
Changes are numbered by the printed parent chain.

B1: HA-tagged Cbln1 (wild type) (ligand, mouse, UniProt Q9R171 22-193, looked up)
chain: QNETEPIVLEGKCLVVCDSNPTSDPTGTALGISVRSGSAKVAFSAIRSTNHEPSEMSNRTMIIYFDQVLVNIGNNFDSERSTFIAPRKGIYSFNFHVVKVYNRQTIQVSLMLNGWPVISAFAGDQDVTREAASNGVLIQMEKGDRAYLKLERGNLMGGWKYSTFSGFLVFPL
modifications: N-linked glycans at N23 and N79; sialylated
B2: HA-tagged Cbln1 N79Q (ligand, mouse, UniProt Q9R171 22-193, looked up)
chain: B1 chain with N58Q
modifications: N-linked glycan at N23 only (monoglycosylated)
B3: HA-tagged Cbln1 N23Q (ligand, mouse, UniProt Q9R171 22-193, looked up)
chain: B1 chain with N2Q
modifications: N-linked glycan at N79 only (monoglycosylated)
B4: HA-tagged Cbln2 (wild type) (ligand, mouse, UniProt Q8BGU2 52-224, looked up)
chain: QNDTEPIVLEGKCLVVCDSSPSGDGAVTSSLGISVRSGSAKVAFSATRSTNHEPSEMSNRTMTIYFDQVLVNIGNHFDLASSIFVAPRKGIYSFSFHVVKVYNRQTIQVSLMQNGYPVISAFAGDQDVTREAASNGVLLLMEREDKVHLKLERGNLMGGWKYSTFSGFLVFPL
modifications: N-linked glycans at N53 and N110
B5: HA-tagged Cbln2 N110Q (ligand, mouse, UniProt Q8BGU2 52-224, looked up)
chain: B4 chain with N59Q
modifications: N-linked glycan at N53 only (monoglycosylated)
B6: HA-tagged Cbln2 N53Q (ligand, mouse, UniProt Q8BGU2 52-224, looked up)
chain: B4 chain with N2Q
modifications: N-linked glycan at N110 only (monoglycosylated)
B7: HA-tagged Cbln4 (wild type) (ligand, mouse, UniProt Q8BME9 25-198, looked up)
chain: QNDTEPIVLEGKCLVVCDSNPATDSKGSSSSPLGISVRAANSKVAFSAVRSTNHEPSEMSNKTRIIYFDQILVNVGNFFTLESVFVAPRKGIYSFSFHVIKVYQSQTIQVNLMLNGKPVISAFAGDKDVTREAATNGVLLYLDKEDKVYLKLEKGNLLGGWQYSTFSGFLVFPL
modifications: N-linked glycans at N26 and N85; sialylated
B8: HA-tagged Cbln4 N85Q (ligand, mouse, UniProt Q8BME9 25-198, looked up)
chain: B7 chain with N61Q
modifications: N-linked glycan at N26 only (monoglycosylated)

Target: the molecule itself
Assay: native gel or EMSA

Protein | stoichiometry N
B1 | 6
B2 | 6
B3 | 6
B4 | 6
B5 | 6
B6 | 6
B7 | 6
B8 | 6
